# Test results from IntAct's records for PubMed 17721439.
# Columns and labels:
# wnk4_human WNK4 [1] = biological target: wnk4_human WNK4 (UniProt Q96J92)
# wnk4_human WNK4 [2] = biological target: wnk4_human WNK4 (UniProt Q96J92); remark: listed apart in the source
# SLC12A2 [3] = biological target: SLC12A2 (UniProt P55011)
# wnk4_human WNK4 [4] = biological target: wnk4_human WNK4 (UniProt Q96J92); remark: listed apart in the source
# wnk1_human WNK1 [5] = biological target: wnk1_human WNK1 (UniProt Q9H4A3)
# wnk1_human WNK1, sequence (Q9H4A3 whole entry, looked up): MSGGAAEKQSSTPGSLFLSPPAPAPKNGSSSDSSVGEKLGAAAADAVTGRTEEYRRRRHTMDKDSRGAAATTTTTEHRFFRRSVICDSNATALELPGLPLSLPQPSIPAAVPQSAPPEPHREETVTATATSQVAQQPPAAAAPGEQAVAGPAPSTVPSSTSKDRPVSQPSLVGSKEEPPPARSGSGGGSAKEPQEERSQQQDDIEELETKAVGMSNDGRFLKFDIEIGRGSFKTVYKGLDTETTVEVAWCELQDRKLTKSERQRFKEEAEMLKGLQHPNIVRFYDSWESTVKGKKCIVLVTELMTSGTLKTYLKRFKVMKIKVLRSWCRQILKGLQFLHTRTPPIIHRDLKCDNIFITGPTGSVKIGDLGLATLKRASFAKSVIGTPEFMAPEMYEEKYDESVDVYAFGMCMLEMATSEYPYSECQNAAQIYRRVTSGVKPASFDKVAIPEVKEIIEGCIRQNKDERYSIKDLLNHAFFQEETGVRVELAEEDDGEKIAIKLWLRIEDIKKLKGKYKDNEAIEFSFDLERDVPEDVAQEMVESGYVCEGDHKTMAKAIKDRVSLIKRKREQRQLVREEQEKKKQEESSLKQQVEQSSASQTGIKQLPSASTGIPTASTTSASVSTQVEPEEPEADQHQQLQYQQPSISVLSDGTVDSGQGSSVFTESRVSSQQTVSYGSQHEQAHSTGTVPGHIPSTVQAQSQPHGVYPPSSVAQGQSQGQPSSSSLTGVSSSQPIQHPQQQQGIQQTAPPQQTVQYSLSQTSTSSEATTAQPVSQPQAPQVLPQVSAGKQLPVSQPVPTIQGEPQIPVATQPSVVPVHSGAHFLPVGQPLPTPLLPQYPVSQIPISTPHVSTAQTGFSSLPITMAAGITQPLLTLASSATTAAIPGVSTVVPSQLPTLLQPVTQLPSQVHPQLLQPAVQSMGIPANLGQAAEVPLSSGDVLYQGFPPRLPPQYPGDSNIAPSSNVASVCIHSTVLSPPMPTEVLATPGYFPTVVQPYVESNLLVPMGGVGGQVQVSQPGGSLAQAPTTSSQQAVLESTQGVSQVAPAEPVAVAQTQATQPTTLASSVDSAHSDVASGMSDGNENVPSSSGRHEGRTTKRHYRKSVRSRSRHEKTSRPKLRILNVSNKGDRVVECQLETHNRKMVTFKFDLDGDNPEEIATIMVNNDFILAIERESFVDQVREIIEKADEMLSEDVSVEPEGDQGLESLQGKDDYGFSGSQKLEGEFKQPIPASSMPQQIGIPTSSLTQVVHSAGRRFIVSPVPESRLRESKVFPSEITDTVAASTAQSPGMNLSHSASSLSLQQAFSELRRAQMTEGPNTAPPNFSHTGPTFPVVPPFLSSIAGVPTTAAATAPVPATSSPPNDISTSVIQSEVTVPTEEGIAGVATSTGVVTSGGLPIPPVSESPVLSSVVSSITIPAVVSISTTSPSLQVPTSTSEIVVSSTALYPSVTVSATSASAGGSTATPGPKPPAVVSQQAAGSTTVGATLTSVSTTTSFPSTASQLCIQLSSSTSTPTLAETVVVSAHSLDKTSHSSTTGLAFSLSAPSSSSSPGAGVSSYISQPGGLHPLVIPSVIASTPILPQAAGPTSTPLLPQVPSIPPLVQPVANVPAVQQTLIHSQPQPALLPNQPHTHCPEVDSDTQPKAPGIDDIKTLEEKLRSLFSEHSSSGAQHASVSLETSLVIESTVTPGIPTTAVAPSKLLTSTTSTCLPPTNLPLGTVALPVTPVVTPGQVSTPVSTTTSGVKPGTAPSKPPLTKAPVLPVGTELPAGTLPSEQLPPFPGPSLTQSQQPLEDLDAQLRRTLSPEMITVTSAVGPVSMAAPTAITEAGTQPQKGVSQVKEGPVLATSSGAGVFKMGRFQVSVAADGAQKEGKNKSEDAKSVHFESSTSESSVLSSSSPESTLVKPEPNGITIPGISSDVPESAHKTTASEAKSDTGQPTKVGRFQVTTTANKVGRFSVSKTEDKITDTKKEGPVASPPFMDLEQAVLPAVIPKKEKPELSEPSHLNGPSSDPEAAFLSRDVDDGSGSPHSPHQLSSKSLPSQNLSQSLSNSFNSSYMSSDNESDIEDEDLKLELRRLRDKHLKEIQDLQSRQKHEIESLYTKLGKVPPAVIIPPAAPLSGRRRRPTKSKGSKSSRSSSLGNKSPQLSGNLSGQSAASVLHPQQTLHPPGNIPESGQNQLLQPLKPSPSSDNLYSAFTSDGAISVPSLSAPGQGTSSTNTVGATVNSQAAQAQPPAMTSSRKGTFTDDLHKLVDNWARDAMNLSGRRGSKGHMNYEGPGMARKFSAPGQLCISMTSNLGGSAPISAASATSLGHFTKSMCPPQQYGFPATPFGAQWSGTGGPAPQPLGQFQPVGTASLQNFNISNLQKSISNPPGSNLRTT
# wnk4_human WNK4 [6] = biological target: wnk4_human WNK4 (UniProt Q96J92); remark: listed apart in the source
# wnk4_human WNK4 [7] = biological target: wnk4_human WNK4 (UniProt Q96J92); remark: listed apart in the source
# wnk4_human WNK4 [8] = biological target: wnk4_human WNK4 (UniProt Q96J92); remark: listed apart in the source
# wnk4_human WNK4 [9] = biological target: wnk4_human WNK4 (UniProt Q96J92); remark: listed apart in the source
# wnk4_human WNK4 [10] = biological target: wnk4_human WNK4 (UniProt Q96J92); remark: listed apart in the source
# SLC12A2 [11] = biological target: SLC12A2 (UniProt P55011); remark: listed apart in the source
# wnk1_human WNK1 [12] = biological target: wnk1_human WNK1 (UniProt Q9H4A3); remark: listed apart in the source
# wnk4_human WNK4 [13] = biological target: wnk4_human WNK4 (UniProt Q96J92); remark: listed apart in the source
# wnk4_human WNK4, sequence (Q96J92 whole entry): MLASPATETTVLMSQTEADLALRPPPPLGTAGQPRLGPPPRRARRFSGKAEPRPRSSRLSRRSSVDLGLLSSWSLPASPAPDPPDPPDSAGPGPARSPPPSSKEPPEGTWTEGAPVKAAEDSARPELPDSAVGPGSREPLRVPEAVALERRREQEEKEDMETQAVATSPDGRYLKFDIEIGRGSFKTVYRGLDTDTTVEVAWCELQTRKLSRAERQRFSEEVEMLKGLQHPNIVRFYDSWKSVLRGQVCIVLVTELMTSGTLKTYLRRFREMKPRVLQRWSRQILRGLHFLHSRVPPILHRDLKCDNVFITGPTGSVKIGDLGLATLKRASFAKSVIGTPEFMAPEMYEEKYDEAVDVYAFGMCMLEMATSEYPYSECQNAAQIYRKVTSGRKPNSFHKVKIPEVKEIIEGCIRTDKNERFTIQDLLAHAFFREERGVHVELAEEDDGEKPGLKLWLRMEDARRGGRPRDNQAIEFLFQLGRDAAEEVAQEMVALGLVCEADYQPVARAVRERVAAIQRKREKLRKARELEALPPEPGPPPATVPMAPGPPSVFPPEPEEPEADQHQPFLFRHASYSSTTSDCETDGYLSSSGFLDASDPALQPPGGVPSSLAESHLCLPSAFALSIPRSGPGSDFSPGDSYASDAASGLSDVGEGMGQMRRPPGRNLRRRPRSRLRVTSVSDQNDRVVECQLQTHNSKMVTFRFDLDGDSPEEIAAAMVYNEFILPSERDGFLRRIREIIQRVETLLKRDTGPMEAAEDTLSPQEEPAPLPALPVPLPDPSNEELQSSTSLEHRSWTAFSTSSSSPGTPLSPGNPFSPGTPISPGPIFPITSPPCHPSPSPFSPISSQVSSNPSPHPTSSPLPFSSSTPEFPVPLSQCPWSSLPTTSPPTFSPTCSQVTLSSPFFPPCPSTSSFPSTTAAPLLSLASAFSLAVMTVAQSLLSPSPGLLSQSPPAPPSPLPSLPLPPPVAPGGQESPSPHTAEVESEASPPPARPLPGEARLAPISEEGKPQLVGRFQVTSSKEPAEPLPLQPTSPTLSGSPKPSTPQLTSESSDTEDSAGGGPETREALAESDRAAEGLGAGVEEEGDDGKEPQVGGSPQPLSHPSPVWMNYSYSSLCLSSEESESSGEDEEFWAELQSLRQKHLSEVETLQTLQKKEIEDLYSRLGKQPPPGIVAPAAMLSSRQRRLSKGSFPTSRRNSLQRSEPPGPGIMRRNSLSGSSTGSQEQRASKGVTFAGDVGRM
# Serine/threonine-protein kinase OSR1 (Homo sapiens), O95747 L473A, sequence (O95747 whole entry L473A): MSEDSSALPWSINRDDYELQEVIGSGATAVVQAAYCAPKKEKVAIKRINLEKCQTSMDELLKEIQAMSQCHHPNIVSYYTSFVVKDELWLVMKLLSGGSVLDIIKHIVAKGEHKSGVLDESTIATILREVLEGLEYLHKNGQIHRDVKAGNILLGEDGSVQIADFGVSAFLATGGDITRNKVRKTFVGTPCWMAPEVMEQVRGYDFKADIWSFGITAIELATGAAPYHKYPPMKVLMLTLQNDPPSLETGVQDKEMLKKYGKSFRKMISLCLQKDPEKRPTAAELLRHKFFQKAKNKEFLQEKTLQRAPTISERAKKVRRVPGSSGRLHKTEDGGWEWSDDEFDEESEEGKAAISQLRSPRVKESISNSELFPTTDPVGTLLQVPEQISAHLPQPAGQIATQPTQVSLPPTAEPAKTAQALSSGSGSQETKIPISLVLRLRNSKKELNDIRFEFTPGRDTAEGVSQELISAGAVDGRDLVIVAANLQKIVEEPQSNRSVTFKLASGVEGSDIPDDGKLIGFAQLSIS
# Serine/threonine-protein kinase OSR1 (Homo sapiens), O95747 D459A, sequence (O95747 whole entry D459A): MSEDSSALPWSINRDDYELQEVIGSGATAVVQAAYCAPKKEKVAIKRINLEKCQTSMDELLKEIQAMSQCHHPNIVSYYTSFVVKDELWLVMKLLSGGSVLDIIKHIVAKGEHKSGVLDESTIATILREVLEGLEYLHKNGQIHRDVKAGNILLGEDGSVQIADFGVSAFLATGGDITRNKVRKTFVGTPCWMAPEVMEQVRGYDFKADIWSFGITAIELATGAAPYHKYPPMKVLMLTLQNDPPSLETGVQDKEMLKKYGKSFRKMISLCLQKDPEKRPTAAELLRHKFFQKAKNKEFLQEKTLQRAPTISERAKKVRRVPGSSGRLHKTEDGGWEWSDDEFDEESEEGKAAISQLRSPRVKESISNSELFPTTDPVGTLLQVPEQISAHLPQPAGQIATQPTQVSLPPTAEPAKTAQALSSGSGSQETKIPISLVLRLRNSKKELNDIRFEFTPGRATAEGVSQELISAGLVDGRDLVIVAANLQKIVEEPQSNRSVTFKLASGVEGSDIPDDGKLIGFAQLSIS
substance,measurement,setting,value
"Serine/threonine-protein kinase OSR1 (Homo sapiens), O95747 A471L",effect of a mutation on the interaction,wnk4_human WNK4 [1],decreasing interaction
"Serine/threonine-protein kinase OSR1 (Homo sapiens), O95747 D449A",effect of a mutation on the interaction,wnk4_human WNK4 [2],decreasing interaction
"Serine/threonine-protein kinase OSR1 (Homo sapiens), O95747 D459A",effect of a mutation on the interaction,SLC12A2 [3],disrupting interaction
same,effect of a mutation on the interaction,wnk4_human WNK4 [4],disrupting interaction
same,effect of a mutation on the interaction,wnk1_human WNK1 [5],disrupting interaction
"Serine/threonine-protein kinase OSR1 (Homo sapiens), O95747 E446A",effect of a mutation on the interaction,wnk4_human WNK4 [6],decreasing interaction
"Serine/threonine-protein kinase OSR1 (Homo sapiens), O95747 E467A",effect of a mutation on the interaction,wnk4_human WNK4 [7],disrupting interaction
"Serine/threonine-protein kinase OSR1 (Homo sapiens), O95747 I450A",effect of a mutation on the interaction,wnk4_human WNK4 [8],disrupting interaction
"Serine/threonine-protein kinase OSR1 (Homo sapiens), O95747 L468F",effect of a mutation on the interaction,wnk4_human WNK4 [9],disrupting interaction
"Serine/threonine-protein kinase OSR1 (Homo sapiens), O95747 L473A",effect of a mutation on the interaction,wnk4_human WNK4 [10],disrupting interaction
same,effect of a mutation on the interaction,SLC12A2 [11],disrupting interaction
same,effect of a mutation on the interaction,wnk1_human WNK1 [12],disrupting interaction
"Serine/threonine-protein kinase OSR1 (Homo sapiens), O95747 R451A",effect of a mutation on the interaction,wnk4_human WNK4 [13],decreasing interaction
